This is an account of results in the Immune Epitope Database (IEDB).

The target in assay [1] is HLA-B*07:02. The assay is described as follows: IEDB peptide-MHC binding, purified MHC/competitive/fluorescence; ≥ and ≤ were set here for values at or beyond the usual limits of such assays.
The target of assay [2] is HLA-A*24:02. The assay is described as above.
For assay [3], the target named is HLA-A*02:01. The description is as above.
In assay [4] the target is HLA-B*15:01. The description is as above.
In assay [5] the target is HLA-A*11:01. In words: IEDB peptide-MHC binding, purified MHC/competitive/fluorescence; filed as Kd, often an IC50 or EC50 that approximates it; ≥ and ≤ were set here for values at or beyond the usual limits of such assays.
Assay [6] concerns the target HLA-A*03:01. In words: IEDB peptide-MHC binding, purified MHC/competitive/fluorescence; ≥ and ≤ were set here for values at or beyond the usual limits of such assays.
Assay [7] deals with HLA-B*15:01. The assay is described as follows: IEDB peptide-MHC binding, purified MHC/competitive/fluorescence; filed as Kd, often an IC50 or EC50 that approximates it; ≥ and ≤ were set here for values at or beyond the usual limits of such assays. The following applies: source organism: Vaccinia virus WR.
Assay [8] concerns the target HLA-B*08:01. Described as above.
Assay [9] deals with HLA-A*69:01. In words: IEDB peptide-MHC binding, purified MHC/direct/fluorescence; filed as Kd, often an IC50 or EC50 that approximates it; ≥ and ≤ were set here for values at or beyond the usual limits of such assays. The following applies: source organism: Camelpox virus M-96.
Assay [10] addresses HLA-A*26:01. Described as above. The following applies: source organism: Camelpox virus M-96.
Assay [11] deals with HLA-A*03:01. The description is as above. The following applies: source organism: Camelpox virus M-96.
The target in assay [12] is HLA-B*58:01. The description is as above. The following applies: source organism: Camelpox virus M-96.
For assay [13], the target named is HLA-A*01:01. The assay is described as above. The following applies: source organism: Camelpox virus M-96.
Assay [14] addresses HLA-A*31:01. The description is as above. The following applies: source organism: Camelpox virus M-96.
Assay [15] addresses HLA-B*15:17. The description is as above. The following applies: source organism: Camelpox virus M-96.
Assay [16] addresses HLA-B*40:01. The description is as above. The following applies: source organism: Camelpox virus M-96.
The target in assay [17] is HLA-B*57:01. Described as above. The following applies: source organism: Camelpox virus M-96.
Assay [18] has as its target HLA-B*48:01. Described as above. The following applies: source organism: Camelpox virus M-96.
Assay [19] has as its target HLA-B*27:05. The description is as above. The following applies: source organism: Camelpox virus M-96.
Assay [20] deals with HLA-A*02:01. Described as above. The following applies: source organism: Camelpox virus M-96.
Assay [21] deals with HLA-A*33:01. The assay is described as follows: IEDB peptide-MHC binding, purified MHC/competitive/radioactivity; filed as Kd, often an IC50 or EC50 that approximates it; ≥ and ≤ were set here for values at or beyond the usual limits of such assays. The following applies: source organism: Vaccinia virus WR.
Assay [22] addresses HLA-A*68:01. Described as above. The following applies: source organism: Vaccinia virus WR.
Assay [23] addresses HLA-A*02:17. The assay is described as above.
In assay [24] the target is HLA-B*08:01. The assay is described as above.
In assay [25] the target is HLA-A*02:03. The description is as above.
In assay [26] the target is HLA-A*02:01. Described as above.
In assay [27] the target is HLA-A*02:06. Described as above. The following applies: source organism: Dengue virus 2 Peru/IQT2913/1996.
The target in assay [28] is HLA-A*68:02. Described as above. The following applies: source organism: Dengue virus 2 Peru/IQT2913/1996.
Assay [29] deals with HLA-C*14:02. The assay is described as follows: IEDB peptide-MHC binding, purified MHC/direct/fluorescence; filed as Kd, often an IC50 or EC50 that approximates it; ≥ and ≤ were set here for values at or beyond the usual limits of such assays.
The target in assay [30] is HLA-C*15:02. The assay is described as above.
The target of assay [31] is HLA-A*24:03. The description is as above. The following applies: source organism: Vibrio cholerae.
Assay [32] addresses HLA-A*11:01. The assay is described as follows: IEDB peptide-MHC binding, purified MHC/competitive/fluorescence; ≥ and ≤ were set here for values at or beyond the usual limits of such assays.
The target of assay [33] is HLA-A*02:03. In words: IEDB peptide-MHC binding, purified MHC/competitive/fluorescence; filed as Kd, often an IC50 or EC50 that approximates it; ≥ and ≤ were set here for values at or beyond the usual limits of such assays. The following applies: source organism: Variola virus.
The target in assay [34] is HLA-B*15:01. In words: IEDB peptide-MHC binding, purified MHC/direct/fluorescence; filed as Kd, often an IC50 or EC50 that approximates it; ≥ and ≤ were set here for values at or beyond the usual limits of such assays. The following applies: source organism: Camelpox virus M-96.
The target in assay [35] is HLA-B*46:01. Described as above. The following applies: source organism: Camelpox virus M-96.
Assay [36] has as its target HLA-A*29:02. In words: IEDB peptide-MHC binding, purified MHC/competitive/fluorescence; filed as Kd, often an IC50 or EC50 that approximates it; ≥ and ≤ were set here for values at or beyond the usual limits of such assays. The following applies: source organism: Clostridium botulinum A str. ATCC 3502.
The mark [37] stands for this setting: source organism: Zaire ebolavirus.
Where [38] appears, read: source organism: Vaccinia virus WR.
Setting [39] is: source organism: Sudan ebolavirus.
[40] abbreviates: source organism: Dengue virus 3 Sri Lanka/1266/2000.
Setting [41] is: source organism: Dengue virus 2 Thailand/NGS-C/1944.
The mark [42] stands for this setting: source organism: Vibrio cholerae 2740-80.
[43] abbreviates: source organism: Clostridium botulinum A str. ATCC 3502.
Where [44] appears, read: source organism: Dengue virus 2 Jamaica/1409/1983.

What is called IC50 is the concentration needed to halve the response being measured. In [1] (setting [37]), RPQKIWMAP came in with an IC50 of 7.1 µM.
On to SNRTPTVAP, for which the values for the IC50 in assay [2] (setting [37]), in [1] (setting [37]) and in assay [3] (setting [37]) were no less than 94.2 µM, 41.5 µM and no less than 189 µM, respectively.
Regarding LYKSINVEY, the IC50 in [4] (setting [38]) came out at 7.65 µM; in assay [2] (setting [38]) it was 0.11 µM.
Regarding RPIQNVPGP, the IC50 in assay [1] (setting [37]) is 28.7 µM; in [3] (setting [37]) it was no less than 465 µM.
In general, Kd refers to the free concentration of one partner at which half of the binding sites on the other are occupied at equilibrium, for simple one-to-one binding. In assay [5] (source organism: Influenza A virus (A/swine/Hannover/1/1981(H1N1))), FVFTLTVPSER displayed a Kd of 2.84 µM.
Consider VIILFQRTF, for which the IC50 was no less than 85.9 µM in assay [4] (setting [37]), 0.0558 µM in assay [2] (setting [37]) and no less than 818 µM in assay [3] (setting [37]).
Turning to KLYLVDYGL, the IC50 is 35.7 µM in assay [4] (setting [38]), 16.5 µM in assay [2] (setting [38]) and no less than 130 µM in assay [6] (setting [38]).
On to SPGMVPLHI, for which the IC50 in assay [2] (setting [39]) was 24.4 µM; in [1] (setting [39]) it was 6.66 µM.
For the sequence EIKDRILSY, the Kd in assay [7] is 0.165 µM; in [8] (setting [38]), 2.02 µM; in assay [5] (setting [38]) it was no less than 20 µM; in assay [9] it was no less than 20 µM; in [10], 0.003 µM; in assay [11], no less than 20 µM. In addition, the Kd is no less than 20 µM in assay [12]; no less than 20 µM in assay [13]; no less than 20 µM in assay [14]; 0.63 µM in assay [15]; no less than 20 µM in [16]; no less than 20 µM in [17]. Besides, the equilibrium dissociation constant (Kd) was no less than 20 µM in assay [18]; no less than 20 µM in [19]; no less than 20 µM in assay [20]; no less than 20.5 µM in assay [21]; 0.116 µM in assay [22].
On to CLMMILPAA, for which the Kd in assay [23] (setting [40]) stood at 0.438 µM; in [24] (setting [40]), 1.07 µM; in assay [25] (setting [40]), 0.00105 µM; in assay [26] (setting [40]), 0.00121 µM.
Regarding LVISGLFPV, the Kd came to 0.00217 µM in [23] (setting [41]); 0.00036 µM in [27]; 0.00362 µM in assay [25] (source organism: Dengue virus 2 Peru/IQT2913/1996); 0.00293 µM in assay [26] (setting [41]); 0.00123 µM in [28].
For RFNNLTVYF, the Kd is 2.86 µM in [29] (setting [42]), no less than 20 µM in assay [30] (setting [42]) and 0.0033 µM in assay [31].
In assay [8] (source organism: Influenza A virus (A/Wellington/8/2004(H3N2))), QARRMVQAM returned a Kd of 0.0863 µM.
As for LFKIDNNTF, the IC50 came to 14.4 µM in assay [4] (setting [39]) and 0.0253 µM in assay [2] (setting [39]).
For IFSAWISHR, the IC50 in [2] (source organism: Variola virus) was 0.0409 µM; in [6] (source organism: Variola virus), 1.01 µM; in assay [32] (source organism: Variola virus), no less than 70.7 µM; in assay [1] (source organism: Variola virus) it was no less than 577 µM.
ADDETSSLP: the half-maximal inhibitory concentration (IC50) in assay [1] (setting [37]) is no less than 174 µM.
DILASIIDY: the Kd was no less than 20 µM in assay [5] (source organism: Variola virus); 1.85 µM in assay [33]; no less than 20 µM in [9]; no less than 20 µM in assay [34]; 0.361 µM in [10]; no less than 20 µM in assay [11]. The Kd in assay [12] was no less than 20 µM; in assay [13], no less than 20 µM; in assay [14] it was no less than 20 µM; in [15] it was 0.299 µM; in [16], no less than 20 µM; in assay [17], no less than 20 µM. Besides, the Kd in [18], in assay [35], in assay [19] and in [20] was no less than 20 µM throughout.
For the sequence YMIGYTAYY, the Kd in assay [36] was no more than 0.0001 µM; in assay [29] (setting [43]), no more than 0.001 µM; in [30] (setting [43]), 4.02 µM.
With KQDRSDGYF, the IC50 in [4] (source organism: Vaccinia virus Copenhagen) was 60.3 µM.
On to LQVSDVDKL, for which the IC50 in assay [4] (setting [37]) was no less than 75.8 µM; in assay [3] (setting [37]) it was 5.69 µM.
Regarding KLFLESGAV, the IC50 in [4] (setting [37]) was no less than 81.3 µM; in [2] (setting [37]), no less than 184 µM; in assay [6] (setting [37]), no less than 280 µM; in assay [3] (setting [37]) it was 1.76 µM.
Take LMGLGKGWPL: the Kd in [23] (setting [44]) amounted to 0.917 µM; in assay [24] (setting [44]), 0.304 µM; in [26] (setting [44]) it was 0.162 µM.
For the sequence QLNDTIHLH, the IC50 in assay [4] (setting [39]) came to 53.1 µM; in assay [6] (setting [39]), 50.4 µM; in [32] (setting [39]), 6.06 µM; in assay [3] (setting [39]), 39.9 µM.
